Where a chain is given by its changes, count along the chain named. Names may count otherwise.
Tests used:
Experiment in all cases: flow cytometry titration on CHO-K1 cells transiently expressing the HA-tagged TIGIT mutant, Alexa488 anti-human IgG detection, four-parameter fit of percent of control, nM is from the concentration axis and paragraph 252
H55A = molecular target: T1, H55A
T1 construct: also called HA-tagged human TIGIT with mutation H55A, on CHO-K1 cells
T1 single chain: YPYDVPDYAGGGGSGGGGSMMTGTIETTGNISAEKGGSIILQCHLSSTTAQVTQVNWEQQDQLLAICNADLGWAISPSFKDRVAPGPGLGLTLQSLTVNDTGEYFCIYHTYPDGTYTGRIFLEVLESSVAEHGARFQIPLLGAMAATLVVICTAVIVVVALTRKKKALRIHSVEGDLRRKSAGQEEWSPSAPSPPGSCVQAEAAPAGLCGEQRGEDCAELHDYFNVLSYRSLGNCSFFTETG
Method: (§1) For flow cytometry analysis of the anti-hTIGIT antibody binding epitope, HA-tagged human TIGIT proteins with or without single amino acid mutation were transiently transfected into CHO-K1 cells. After 24 hr, transfected cells were suspended in HBSS buffer (Thermo Fisher Scientific, Cat#14175095), and incubated with HuTIG1-IgG1.AA antibody at varying concentrations in 50 μL volume. After 1 hr incubation at 4° C., cells were washed and a second incubation with 50 μL Alexa488 conjugated anti-human IgG(H+L) secondary antibody (Thermo Fisher Scientific, Cat#A-11013) was performed to detect cells bound by antibody. Cells were incubated with an anti-HA antibody (Sigma, Cat# H7411) as a positive control, and non-transfected CHO-K1 cells were used as a negative control. The cells were analyzed on an Attune NxT Cytometer (Thermo Fisher Scientific) and the data were processed using FlowJo software. For each mutant, the saturating antibody binding MFI (mean fluorescence intensity) were normalized to 100% POC (percent of control), and no primary antibody binding control MFI were normalized to 0% POC. Data were then fit to a four parameter non-linear sigmoidal curve using GraphPad Prism 7 curve fitting using following formula: Y=Bottom+(Top−Bottom)/(1+10^{((Log EC}^₅₀^{-X)*HillSlope)}).
(§2) All of these residues co-locate to one discrete region on the front ([…] structure of the TIGIT IgV extracellular domain (FIG. 28).

E39A = molecular target: T2, E39A
T2 construct: also called HA-tagged human TIGIT with mutation E39A, on CHO-K1 cells
T2 single chain: T1 single chain with E58A, A74H
Method: as §1, §2

L52A = molecular target: T3, L52A
T3 construct: also called HA-tagged human TIGIT with mutation L52A, on CHO-K1 cells
T3 single chain: T1 single chain with L71A, A74H
Method: as §1, §2

I47A = molecular target: T4, I47A
T4 construct: also called HA-tagged human TIGIT with mutation I47A, on CHO-K1 cells
T4 single chain: T1 single chain with I66A, A74H
Method: as §1, §2

Y92A = molecular target: T5, Y92A
T5 construct: also called HA-tagged human TIGIT with mutation Y92A, on CHO-K1 cells
T5 single chain: T1 single chain with A74H, Y111A
Method: as §1, §2

[1] = molecular target: T6, HA-tagged human TIGIT with mutation H90A, on CHO-K1 cells (human, UniProt Q495A1 22-244)
T6 construct: Built as for m17
T6 sequence: T1 single chain with A74H, H109A
Method: as §1, §2

B1: HuTIG1-IgG1.AA (humanized IgG1/kappa form of TIG1, L234A/L235A) (antibody)
heavy: not shown
light: DIQMTQSPSSLSASVGDRVTITCRASKSISKYLAWYQQKPGKAPKLLIYSGSTLQSGVPSRFSGSGSGTDFTLTISSLQPEDFATYYCQQHNEYPWTFGGGTKVEIKRTVAAPSVFIFPPSDEQLKSGTASVVCLLNNFYPREAKVQWKVDNALQSGNSQESVTEQDSKDSTYSLSSTLTLSKADYEKHKVYACEVTHQGLSSPVTKSFNRGEC
notes: Mature full chains; also called humanized TIG1
- EC50 (H55A): 1.19 nM
- EC50 (E39A): 1.58 nM
- EC50 (L52A): 2.67 nM
- EC50 (I47A): 1.27 nM
- EC50 (Y92A): 2.12 nM
- EC50 [1]: 104 nM

From patent US20170281764A1 (JN BIOSCIENCES, published 2017)
